Experimental data from the domain aggregation screens of Martell et al. (2025).

Test: soluble fraction after stress (log2 fold change); higher = more stays soluble; pooled small domains, quantitative proteomics
Settings: stress: pH 4
Procedure, shortened: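 Values are log2 fold changes, and higher ones mean more of the domain stayed soluble. Each fold change reflects the soluble amount of a domain after acid stress and is taken as a measure of aggregation propensity. The stress was pH 4, applied to pooled custom libraries of small protein domains analysed by high-throughput quantitative proteomics.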

“HMSDGHLIKVLEVLDGGEAFLGRTANGGTARFSLGQLADIRRGSVVFVSEDRWEVVPDSAWPEI” and “HMINFLSKREIEVLRLVADGLSNRDVGQYLFISESTVKRHLSTIYEKLAVKSRTQAIDHARRADL” are within 0.2 log units of each other in “soluble fraction (log2)” value: -1.29 for the first, -1.39 for the second.

First: HMVPVVGTTIPHEFIGKFGSARVMLKPAVEGSGVIAGGSARAVLELAGYKDIKTKVLGTNNPRNVVYATMN
Second: HMAKSPYDVLGLKEDAPFDEVKKRYRELVKKYHPDILMGRGESEEMIEKSTRKLQEINEAYETIKQRA
The “soluble fraction (log2)” value of the first is higher: 0.196 for the first, -0.0402 for the second.

First: HMNDVEAIDDALKDLHKVSPDLAALVEMKFFGGMTEPEISEILGVSERTVRREWEKARAALLVLLE
Second: HMSESLLTAAGFKTIAATTPEQKRHLEWLHPDQVTAVQLTGQHYYVYPDVAKSQLFVGTPKEYQAYLALRT
The “soluble fraction (log2)” value of the first is lower: -1.18 for the first, 0.00516 for the second.

First: HMAPDNDELEKAKKIVNAFIEAKAKGLGVVSLGTKMIDAPVVKRAQKIIDQTIVMGKLSLNWQDEFFN
Second: HMEAEPRLLDLPPGTRAGRLDKVLAQLLPEHSRSRLQGWIERGGVLVNGKEASVRQVVGPGDQLTVWEEAA
The “soluble fraction (log2)” value of the first is lower: -0.32 for the first, 0.0341 for the second.

“HMESIPDELLEAFKQDPAFKQAFYALTAGRQRGYIIHFSQPKQSQTRIGRIEKYKEQIFNGIGLN” and “HMNTKLSYSDLIEKIEAGQVEKVELDAGGSSAIVKLKNDNIEKRVNVPSIDNLMENLQDNMKTGNISVTE” are within 0.2 log units of each other in “soluble fraction (log2)” value: -0.125 for the first, -0.202 for the second.

“HMFYNSSDNAYKILEINKSATVDEIKAAYRKMAKKYHPDKVIHLGQEHQKGAEEKFRQVQEAYEELQKERG” and “HMTGGIWVQIQGAVERPGVYSLPRDSRLKDLLEAAGGFGRDADTEKVNQAARLEDGAMYRVPRQGEG” are within 0.2 log units of each other in “soluble fraction (log2)” value: 0.297 for the first, 0.164 for the second.

Compared with “HMSEYLDIHMAMEKLNRKEQLFVHLRFYEGLTQSEIAQRLFTSQVQISRLEKSVLEKMRQILSK”, “HMFAATGVVNAPSGLVLRETASKGGNPLATVPDKAQVEIVEEDGEWYKVKVNEQTGYLFAEFVNKTE” is higher in “soluble fraction (log2)” value: -0.91 for the first, -0.13 for the second.

Going from “HMENKVLVITEEEKGKRLDVYLAAALEVSRSYAQQLIQGEDVVVNDKQVKANYRLSEGDVVQVQLD” to “HMTLGEHILQYRTARGWSQEDLANALEVSRQSVSKWETDASTPELDKIVRLSEIFQVSIDELVTGKA”, the “soluble fraction (log2)” value rises from -0.218 to 0.0683.

First: HMPLRPNQRQFIHLMVYQGLDRNEAYAQANNKVLTEENYESIRTAAAKTFYTPHVNNYYHALMEEIRDRE
Second: HMETLKEMDSKGAINASEVNVREGAGTSSSKMYSLSKGASVDVTGIKGDWYRVHTSKGTGYVLAKYVTLVS
The “soluble fraction (log2)” value of the first is lower: -0.404 for the first, at least 0.43 for the second.

Going from “HMDNEIEQIVEDLNLTLSSLKYTKNQIESILPLIIKEIDDFKKKEKNISFENLLKLAMNHLDND” to “HMSFVAYEEEKAIGMVRLIGDGGMSFYIKDFAVLPGHQGKGVGQMLLMELQQYLLEHKPADWAVSLE”, the “soluble fraction (log2)” value falls from -1.16 to -1.47.

Going from “HMNLFKAPMPGLIRTIVVAEGQEVKKGDVILILEAMKMENALKSPADLVVKSIKVQQGQAVEKNQLLIEF” to “HMVTGSIYERKGIYYAIVSYYVDGRRKQKSVSTGLSVKGNKRRALEFLENLKRTYETKESMENMD”, the “soluble fraction (log2)” value rises from -0.14 to at least 0.43.

First: HMDIEHREMKLQKLVITADSPLVGKTLKESNVRQRYNFMVVGVEEGQKNLTMINPNRRFEVGDIVWVVGEE
Second: HMYPIYDYISNMYLGKHLNAGMSLEEARGIMDEMLEKLLFDVPEEYHIDRDHFYEYLKKYYTERFSA
The “soluble fraction (log2)” value of the first is higher: -0.204 for the first, -1.7 for the second.

First: HMVNDDTIAATEAEILALLADKHRHHITELNSIRRPYEQIDAALSSLINEEKIFQEDGMLFV
Second: HMDGRSLSHATLEEIRIRAVQRVEAGESPEVVVKALGFSRPRIYEWLALYREGGLEALRAKPV
The “soluble fraction (log2)” value of the first is lower: -0.908 for the first, -0.53 for the second.

First: HMIFEEDILKEFRGSLIFITHDRRFLDNIATRIIELDRGKLLSFPGNFSAYKKAKNEQLANEAVENA
Second: HMTTKYMVLVNWVKEKVRTNELKTGEKLYSEHEFSRMFHMSRQTVRHGISILERENIVERRQGSGTFIKDA
The “soluble fraction (log2)” value of the first is lower: -1.17 for the first, -0.223 for the second.

Going from “HMAGNNTATKEIAELLIAKGADVNAMNLSPPGREIGGMTPLDMAILGNRNEIADLLRKHGGRTQKELKAE” to “HMSRLQDAELQAQIDKMAGAMQLRDIPVYVQDIPTINGLAAPDGRVFITQGFIDKYKLGEVSAGEIASVI”, the “soluble fraction (log2)” value rises from -0.104 to 0.316.

Going from “HMELNGVSETAKSVYSIILNNSSTVDDIVIKTKLPAAKVMQALTELELNDAVERKSGGVYALP” to “HMKKIFIDAPLDTMITIPKDTTHHLLTVFRHKMEKPVLVGGSDGRTGVYQIQDVVDGEASAKLVGDIQ”, the “soluble fraction (log2)” value rises from -0.0324 to 0.318.

First: HMPNFDPSYILDFGDVIQLQLVGQKNQILEIPILRDGSVNLPDIGKIFLSGMSLEEATKIIKDTYSA
Second: HMYSINKTEFGERIKSAREELKMTQTQLAQLLKTSQTTVAKYEHGEQIPRADVLATISKATGKSTDWLLFG
The “soluble fraction (log2)” value of the first is lower: -1.28 for the first, 0.11 for the second.

Compared with “HMPAELGVVVRNANLRSGPGTKYAIVGSAPAGTTVRIAGTNKAGDWYHLSSGRWIAAFLVDRN”, “HMQDREIHIHAGREVLEKELSRLSLHLKNTNLQEYAARFNVKTAEDILAGIGAGDIRPAHVVNLIADKL” is lower in “soluble fraction (log2)” value: 0.34 for the first, -0.222 for the second.

Going from “HMTPDVAEFRERLRQILPGEQIEVRTANDGIVLSGTVSSIARLDAALQLAERYAPSRVSNLMSVG” to “HMAALKVAVLTVSDTRTQETDTSGAFLEGALREAGHEIADRQIVIDDVYQLRAIVSQWIADPEVEVILT”, the “soluble fraction (log2)” value falls from 0.399 to -1.31.

First: HMKEIKAPNKINAHLIEEWRSQHPTELFPEEKVDLIYYKGEEYYFVIEEKNELGEIEEWYFAYDGGIDYV
Second: HMEQISIETRIEQLLARLSETEASGFEELFADTSSRADLITTFLALLEMIRLKLVRVFQDGSFGPIRIYKR
The “soluble fraction (log2)” value of the first is higher: -0.373 for the first, -1.5 for the second.

Compared with “HMSSEITYDKFIEMVEEGNVKEVTLQSDTLTIKPKHQDSAFSEKEYYTRQMESADQLTERLEGTGIEFHS”, “HMASATGVVTAASLNVRSGAGTNYSVVNTLAKGTKVTVLNTADGWYEIEATVNNEKITGYVSATYIAMD” is higher in “soluble fraction (log2)” value: -0.642 for the first, -0.0486 for the second.

First: HMQILVEGVEANQRLDLFLRARLTEFSRSRIQGLVKNGNVLVNGNIARQAYLVQVGDKIELDVPEPVA
Second: HMPALELLVESKKPLLIHGEKIAEDINLFDREKYFIDDELIRIVKEFPSLKIILEHVSSKYGAD
The “soluble fraction (log2)” value of the first is higher: 0.112 for the first, -1.59 for the second.

Going from “HMYAPKIETIQVPQDKIREVIGTGGKVIREIVETTGAKIDIGDTGLIKVASSDGEAIRAALDWINSIVAE” to “HMVDTEVFSRLLRKVLAGDVTSAIRILEELIVGGRELSQFVGDFTWYMRNLLLVKTSDNPEEA”, the “soluble fraction (log2)” value rises from -0.758 to -0.116.

Compared with “HMIFTPNGDRVNDVFEIEMGVKLEFQIIILNQQNQTVFKSADPDFKWDGTMLNGEPAPSGTYLYYFSAKD”, “HMSLDAAAVASKLIKRLSKSPGRRFALDDLAVDVGLPHEQGRPLVRSALELLVRTQQAVEGPPNVFRLFF” is lower in “soluble fraction (log2)” value: 0.22 for the first, -0.17 for the second.

First: HMLPSMENWLGELSFWQTPWWERRDFSTFDNIAQSKEELDEFMSRDDNGAILERMQDPINTIEAE
Second: HMLLQENRKLHSKLEELQLISRAKAVLIEYLKLTEPQAHRYIEKQAMDLGLTRPQVALNILKTYE
The “soluble fraction (log2)” value of the first is lower: -0.682 for the first, 0.21 for the second.

First: HMTIQNSILDEIPNIGASRKRAILEAFGSVHRLRKASPEMISAKVEGIGPEMAQAIHDYLVKHPAT
Second: HMPTTTFENLPDAKKKTIIAALLKEFSQSPLSKAQVAPIVKESQIARGAFYKYFVDLTDAYTYLYRQ
The “soluble fraction (log2)” value of the first is higher: 0.223 for the first, -0.217 for the second.

Going from “HMRKYKIKEELPDNIYKIIQDNPGIVQKDIYDILGREYQQNISSYIYSMDKNGVIKRDKHGNSYKLYL” to “HMANADVVLVDLDKEYTVDAAKFHSVVKHSPFNGFAVKGAPVLTIVRGTVVAENGEVVGQPGHSKMVRP”, the “soluble fraction (log2)” value rises from -1.01 to -0.0368.

With “HMSSVHTMEVKSTTQIKVLDENKNLSSYYSMKNPVSFNYRLFFLNQDELKKLQEDLKTNNDIQSIDIKYA” the “soluble fraction (log2)” value was -0.944.
